Reference: publication PMC11490872, “Drug-resistant menin variants retain high binding affinity and interactions with MLL1” (The Journal of Biological Chemistry, 2024)
Read-outs that look alike come from different tables or passages of the source.

How the values were obtained:
[1] = target: T1, menin^M327I (Homo sapiens, UniProt O00255, M322I); assay: ITC binding of MLL1 fragments to menin^M327I
T1 construct: The gene encoding full-length human menin was cloned into a pET32a expression vector; thioredoxin-His6 (cleaved yes); made in house; host or cells: E. coli BL21(DE3)
T1 sequence (O00255 1-610 M322I): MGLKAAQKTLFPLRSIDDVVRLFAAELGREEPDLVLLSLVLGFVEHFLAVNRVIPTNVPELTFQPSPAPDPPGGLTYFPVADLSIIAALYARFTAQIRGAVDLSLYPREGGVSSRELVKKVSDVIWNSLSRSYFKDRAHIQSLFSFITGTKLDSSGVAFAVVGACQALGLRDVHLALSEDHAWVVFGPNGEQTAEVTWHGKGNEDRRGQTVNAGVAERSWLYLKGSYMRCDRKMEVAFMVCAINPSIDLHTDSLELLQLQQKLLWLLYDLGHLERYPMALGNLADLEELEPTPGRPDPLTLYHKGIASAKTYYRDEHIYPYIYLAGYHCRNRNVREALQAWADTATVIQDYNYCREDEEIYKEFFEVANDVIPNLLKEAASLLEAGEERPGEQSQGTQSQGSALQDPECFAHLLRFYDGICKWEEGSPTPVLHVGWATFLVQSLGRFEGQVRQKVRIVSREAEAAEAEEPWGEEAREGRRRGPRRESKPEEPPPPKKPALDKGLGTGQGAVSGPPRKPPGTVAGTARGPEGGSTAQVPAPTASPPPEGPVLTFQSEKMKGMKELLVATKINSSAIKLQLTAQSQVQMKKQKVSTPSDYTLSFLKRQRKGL
Description: (§1) Menin and MLL1 fragments were dialyzed at 4 °C against a 50 mM sodium phosphate pH 7.5, 50 mM NaCl, 1 mM TCEP buffer, and degassed prior to measurement. The titrations were performed using the VP-ITC system (MicroCal) at 25 °C. The calorimetric cell, which contained menin (concentrations in the 5–10 μM range), was titrated with the MLL1^160 and MLL1^4-15 derived peptides (concentration range 40–100 μM) injected in 10-μL aliquots. Data was analyzed using Origin 7.0 (OriginLab) to obtain Kd, stoichiometry, entropy, and enthalpy ([2]). Experiments with WT, M327I, T349M, and G331R menin and MLL1^160 or MLL1^4-15 were run in duplicate. Experiments with G331D menin and MLL1^160 were run in duplicate while experiments with G331D and MLL1^4-15 were run in quadruplicate.

[2] = target: T2, menin^G331R (Homo sapiens, UniProt O00255, G326R); assay: ITC binding of MLL1 fragments to menin^G331R
T2 construct: The gene encoding full-length human menin was cloned into a pET32a expression vector; thioredoxin-His6 (cleaved yes); made in house; host or cells: E. coli BL21(DE3)
T2 sequence (O00255 1-610 G326R): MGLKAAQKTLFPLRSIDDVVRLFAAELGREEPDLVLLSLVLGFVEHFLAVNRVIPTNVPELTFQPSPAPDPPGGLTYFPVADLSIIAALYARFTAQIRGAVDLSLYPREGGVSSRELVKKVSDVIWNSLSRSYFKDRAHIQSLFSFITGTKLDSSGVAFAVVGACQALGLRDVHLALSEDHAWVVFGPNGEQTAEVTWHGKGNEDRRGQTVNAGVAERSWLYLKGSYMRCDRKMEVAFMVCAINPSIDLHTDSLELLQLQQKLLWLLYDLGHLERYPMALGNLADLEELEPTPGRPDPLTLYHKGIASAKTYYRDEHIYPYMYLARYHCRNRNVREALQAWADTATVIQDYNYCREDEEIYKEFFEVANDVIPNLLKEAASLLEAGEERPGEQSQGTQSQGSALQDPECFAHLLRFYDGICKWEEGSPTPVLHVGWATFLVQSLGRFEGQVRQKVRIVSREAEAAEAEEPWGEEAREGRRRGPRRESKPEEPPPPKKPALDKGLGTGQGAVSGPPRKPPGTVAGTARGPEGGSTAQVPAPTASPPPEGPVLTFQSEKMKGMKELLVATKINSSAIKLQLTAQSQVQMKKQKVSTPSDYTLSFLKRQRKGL
Description: as §1

[3] = target: T3, menin^G331D (Homo sapiens, UniProt O00255, G326D); assay: ITC binding of MLL1 fragments to menin^G331D
T3 construct: The gene encoding full-length human menin was cloned into a pET32a expression vector; thioredoxin-His6 (cleaved yes); made in house; host or cells: E. coli BL21(DE3)
T3 sequence (O00255 1-610 G326D): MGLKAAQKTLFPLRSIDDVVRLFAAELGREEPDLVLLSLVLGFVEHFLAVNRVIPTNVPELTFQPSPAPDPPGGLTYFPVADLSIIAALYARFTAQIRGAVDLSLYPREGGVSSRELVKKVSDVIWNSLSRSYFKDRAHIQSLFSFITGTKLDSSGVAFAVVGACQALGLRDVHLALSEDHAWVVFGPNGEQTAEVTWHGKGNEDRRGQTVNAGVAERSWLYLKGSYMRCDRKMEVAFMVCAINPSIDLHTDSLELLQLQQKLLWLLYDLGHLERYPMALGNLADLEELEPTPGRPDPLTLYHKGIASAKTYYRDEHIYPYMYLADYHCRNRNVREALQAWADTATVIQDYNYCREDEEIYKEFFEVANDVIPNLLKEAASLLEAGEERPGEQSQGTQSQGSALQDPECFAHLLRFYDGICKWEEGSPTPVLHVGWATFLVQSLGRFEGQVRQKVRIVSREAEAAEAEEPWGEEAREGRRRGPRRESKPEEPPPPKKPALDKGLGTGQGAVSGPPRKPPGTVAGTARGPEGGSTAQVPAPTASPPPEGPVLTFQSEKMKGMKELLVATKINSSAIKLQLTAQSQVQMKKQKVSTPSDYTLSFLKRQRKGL
Description: as §1

[4] = ITC, representative binding isotherm Fig. 1A, 25 °C, read-out: Kd

B1: MLL1^160: N-terminal 160 amino acids of human MLL1, Cys2 mutated to alanine, recombinant (protein)
chain: MAHSARWRFPARPGTTGGGGGGGRRGLGGAPRQRVPALLLPPGPPVGGGGPGAPPSPPAVAAAAAAAGSSGAGVPGGAAAASAASSSSASSSSSSSSSASSGPALLRVGPGFDAALQVSAAIGTNLRRFRAVFGESGGGGGSGEDEQFLGFGSDEEVRVR
modifications: The printed 'Cys2' is the single N-terminal cysteine, Cys5 in the entry (peptide S4-A5-R6); Trx-His6 tag cleaved
Kd ([1]; ITC summary Fig. 1B, values marked *, n = 2, read-out: M327I Kd (nM), ITC): 2.2 ± 0.6 nM | Kd [1, 4]: 2.2 ± 0.6 nM | Kd ([2]; ITC summary Fig. 1B, values marked *, n = 2, read-out: G331R Kd (nM), ITC): 1.3 ± 0.3 nM | Kd [2, 4]: 1.1 ± 0.3 nM | Kd ([3]; ITC summary Fig. 1B, * n = 2, ^ n = 4, read-out: G331D Kd (nM), ITC): 1.4 ± 0.7 nM | Kd [3, 4]: 1.4 ± 0.7 nM
